{"source": "patent US20260226187A1", "about": "(BIOATLA, published 2026)", "binders": {"B1": {"name": "BA3182 (bispecific antibody, human IgG1, kappa, N297Q)", "light": "DIQMTQSPSSLSASVGDRVTITCSASSSISYMHWYQQKPGQAPRLLIYSTSNLASGVPSRFSGSGSGTDFTFTISSLEAEDAATYYCHQWSTYHTFGQGTKVEIKRTVAAPSVFIFPPSDEQLKSGTASVVCLLNNFYPREAKVQWKVDNALQSGNSQESVTEQDSKDSTYSLSSTLTLSKADYEKHKVYACEVTHQGLSSPVTKSFNRGECSRSGGGGEVQLVESGGGLVQPGGSLRLSCAASGFTFNTYAMNWVRQAPGKGLEWVARIRSKYNNYATYYADSVKDRFTISRDDSKNSLYLQMNSLKTEDTAVYYCVRHSNFGNSKVSWFAYWGQGTLVTVSSGGSGGSGGSGGSGGQAVVTQEPSLTVSPGGTVTLTCRSSAGAVTTSNYDNWVQQKPGQAPRGLIGGTNKRAPWTPARFSGSLLGGKAALTITGAQAEDEADYYCALWYSNLWVFGGGTKLTVLSR", "heavy": "not shown", "notes": "Human IgG1,k aglycosylated mutant (N297Q) with an anti-CD3 scFv on the C-terminus of each light chain; 200 kDa used for molar concentrations; also called BAP150.31-BF45; BA150.31-BF45"}}, "test_in_all_cases": "cell-based or functional assay", "key": {"[1]": {"molecular_target": "T1, Human EpCAM expressed on cells (CHO-hEpCAM, HCT116) (human, UniProt P16422 24-314)", "T1 sequence (looked up)": "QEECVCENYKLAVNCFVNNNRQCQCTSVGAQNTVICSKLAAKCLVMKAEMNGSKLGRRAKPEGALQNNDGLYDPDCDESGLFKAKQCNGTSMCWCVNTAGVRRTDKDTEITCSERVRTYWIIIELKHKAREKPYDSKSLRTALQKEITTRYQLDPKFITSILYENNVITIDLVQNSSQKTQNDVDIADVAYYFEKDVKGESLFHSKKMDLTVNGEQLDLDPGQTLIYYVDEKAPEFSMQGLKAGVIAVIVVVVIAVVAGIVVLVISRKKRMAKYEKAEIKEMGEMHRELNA"}, "[2]": {"molecular_target": "T1, Human EpCAM expressed on cells …", "remark": "listed apart in the source"}, "[3]": {"molecular_target": "Cynomolgus EpCAM expressed on CHO cells (cynomolgus monkey)", "sequence (Q1WER1 24-314)": "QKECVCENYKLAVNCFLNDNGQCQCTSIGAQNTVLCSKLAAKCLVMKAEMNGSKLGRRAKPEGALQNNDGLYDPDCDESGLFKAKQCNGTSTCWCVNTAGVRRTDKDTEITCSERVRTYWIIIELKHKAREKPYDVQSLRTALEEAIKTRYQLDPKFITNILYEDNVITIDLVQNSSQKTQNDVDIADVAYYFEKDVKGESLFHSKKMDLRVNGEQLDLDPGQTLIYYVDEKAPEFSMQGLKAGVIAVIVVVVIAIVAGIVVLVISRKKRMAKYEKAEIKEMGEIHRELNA"}, "[4]": {"molecular_target": "T1, Human EpCAM expressed on cells …", "remark": "listed apart in the source"}, "[5]": {"molecular_target": "T1, Human EpCAM expressed on cells …", "remark": "listed apart in the source"}, "[6]": {"molecular_target": "Cynomolgus EpCAM expressed on CHO cells (cynomolgus monkey)", "remark": "listed apart in the source"}}}
{"binder": "B1", "values": [{"measurement": "EC50, T cell activation bioassay (NFAT luminescence), HCT116 cells, pH 6.0, Experiment-1", "setting": "[1]", "result": 0.292, "unit": "nM"}, {"measurement": "EC50, T cell activation bioassay (NFAT luminescence), HCT116 cells, pH 6.0, Experiment-2", "setting": "[1]", "result": 0.288, "unit": "nM"}, {"measurement": "EC50, T cell activation bioassay (NFAT luminescence), HCT116 cells, pH 6.0, Experiment-3", "setting": "[1]", "result": 0.238, "unit": "nM"}, {"measurement": "EC50, T cell activation bioassay (NFAT luminescence), HCT116 cells, pH 7.4, Experiment-1", "setting": "[1]", "result": 1.86, "unit": "nM"}, {"measurement": "EC50, T cell activation bioassay (NFAT luminescence), HCT116 cells, pH 7.4, Experiment-2", "setting": "[1]", "result": 2.15, "unit": "nM"}, {"measurement": "EC50, T cell activation bioassay (NFAT luminescence), HCT116 cells, pH 7.4, Experiment-3", "setting": "[1]", "result": 1.96, "unit": "nM"}, {"measurement": "EC50 IL-2 release, human PBMC co-cultured with HCT116, pH 6.5, donor 3371", "setting": "[2]", "result": 4.56, "unit": "nM"}, {"measurement": "EC50 IL-2 release, human PBMC co-cultured with HCT116, pH 6.5, donor 3378", "setting": "[2]", "result": 7.85, "unit": "nM"}, {"measurement": "EC50 IL-2 release, human PBMC co-cultured with HCT116, pH 6.5, donor 3397", "setting": "[2]", "result": 9.82, "unit": "nM"}, {"measurement": "EC50 IL-2 release, human PBMC co-cultured with HCT116, pH 6.5, donor 3411", "setting": "[2]", "result": 4.92, "unit": "nM"}, {"measurement": "EC50 IL-2 release, human PBMC co-cultured with HCT116, pH 6.5, donor 75377", "setting": "[2]", "result": 23.2, "unit": "nM"}, {"measurement": "EC50 IL-2 release, human PBMC co-cultured with HCT116, pH 6.5, donor 77535", "setting": "[2]", "result": 19.7, "unit": "nM"}, {"measurement": "EC50 IL-2 release, human PBMC co-cultured with HCT116, pH 6.5, donor 85639", "setting": "[2]", "result": 25.6, "unit": "nM"}, {"measurement": "EC50 IL-2 release, human PBMC co-cultured with HCT116, pH 6.5, donor 97529", "setting": "[2]", "result": 15, "unit": "nM"}, {"measurement": "EC50 INFγ release, human PBMC co-cultured with HCT116, pH 6.5, donor 3371", "setting": "[2]", "result": 5.28, "unit": "nM"}, {"measurement": "EC50 INFγ release, human PBMC co-cultured with HCT116, pH 6.5, donor 3378", "setting": "[2]", "result": 6.45, "unit": "nM"}, {"measurement": "EC50 INFγ release, human PBMC co-cultured with HCT116, pH 6.5, donor 3397", "setting": "[2]", "result": 10.1, "unit": "nM"}, {"measurement": "EC50 INFγ release, human PBMC co-cultured with HCT116, pH 6.5, donor 3411", "setting": "[2]", "result": 2.54, "unit": "nM"}, {"measurement": "EC50 INFγ release, human PBMC co-cultured with HCT116, pH 6.5, donor 75377", "setting": "[2]", "result": 2.53, "unit": "nM"}, {"measurement": "EC50 INFγ release, human PBMC co-cultured with HCT116, pH 6.5, donor 77535", "setting": "[2]", "result": 24, "unit": "nM"}, {"measurement": "EC50 INFγ release, human PBMC co-cultured with HCT116, pH 6.5, donor 97529", "setting": "[2]", "result": 2.52, "unit": "nM"}, {"measurement": "EC50, T cell activation bioassay (NFAT luminescence), CHO cynoEpCAM cells, pH 6.0, Experiment-1", "setting": "[3]", "result": 0.545, "unit": "nM"}, {"measurement": "EC50, T cell activation bioassay (NFAT luminescence), CHO cynoEpCAM cells, pH 6.0, Experiment-2", "setting": "[3]", "result": 0.597, "unit": "nM"}, {"measurement": "EC50, T cell activation bioassay (NFAT luminescence), CHO cynoEpCAM cells, pH 6.0, Experiment-3", "setting": "[3]", "result": 0.586, "unit": "nM"}, {"measurement": "EC50, T cell activation bioassay (NFAT luminescence), CHO cynoEpCAM cells, pH 7.4, Experiment-1", "setting": "[3]", "result": 9.46, "unit": "nM"}, {"measurement": "EC50, T cell activation bioassay (NFAT luminescence), CHO cynoEpCAM cells, pH 7.4, Experiment-2", "setting": "[3]", "result": 8.82, "unit": "nM"}, {"measurement": "EC50, T cell activation bioassay (NFAT luminescence), CHO cynoEpCAM cells, pH 7.4, Experiment-3", "setting": "[3]", "result": 10.7, "unit": "nM"}, {"measurement": "EC50, T cell activation bioassay (NFAT luminescence), CHO hEpCAM cells, pH 6.0, Experiment-1", "setting": "[4]", "result": 51, "unit": "pM"}, {"measurement": "EC50, T cell activation bioassay (NFAT luminescence), CHO hEpCAM cells, pH 6.0, Experiment-2", "setting": "[4]", "result": 49, "unit": "pM"}, {"measurement": "EC50, T cell activation bioassay (NFAT luminescence), CHO hEpCAM cells, pH 6.0, Experiment-3", "setting": "[4]", "result": 48, "unit": "pM"}, {"measurement": "EC50, T cell activation bioassay (NFAT luminescence), CHO hEpCAM cells, pH 7.4, Experiment-1", "setting": "[4]", "result": 0.358, "unit": "nM"}, {"measurement": "EC50, T cell activation bioassay (NFAT luminescence), CHO hEpCAM cells, pH 7.4, Experiment-2", "setting": "[4]", "result": 0.387, "unit": "nM"}, {"measurement": "EC50, T cell activation bioassay (NFAT luminescence), CHO hEpCAM cells, pH 7.4, Experiment-3", "setting": "[4]", "result": 0.403, "unit": "nM"}, {"measurement": "EC50, cytolysis of HCT116 cells by human PBMC, pH 6.5, donor 13143", "setting": "[5]", "result": 1.66, "unit": "pM"}, {"measurement": "EC50, cytolysis of HCT116 cells by human PBMC, pH 6.5, donor 13290", "setting": "[5]", "result": 1.03, "unit": "pM"}, {"measurement": "EC50, cytolysis of HCT116 cells by human PBMC, pH 6.5, donor 13292", "setting": "[5]", "result": 2.05, "unit": "pM"}, {"measurement": "EC50, cytolysis of HCT116 cells by human PBMC, pH 6.5, donor 13371", "setting": "[5]", "result": 0.79, "unit": "pM"}, {"measurement": "EC50, cytolysis of HCT116 cells by human PBMC, pH 6.5, donor 13397", "setting": "[5]", "result": 1.19, "unit": "pM"}, {"measurement": "EC50, cytolysis of HCT116 cells by human PBMC, pH 6.5, donor 13411", "setting": "[5]", "result": 1.39, "unit": "pM"}, {"measurement": "EC50, cytolysis of HCT116 cells by human PBMC, pH 6.5, donor 75377", "setting": "[5]", "result": 0.6, "unit": "pM"}, {"measurement": "EC50, cytolysis of HCT116 cells by human PBMC, pH 6.5, donor 77535", "setting": "[5]", "result": 1.52, "unit": "pM"}, {"measurement": "EC50, cytolysis of HCT116 cells by human PBMC, pH 6.5, donor 85639", "setting": "[5]", "result": 0.88, "unit": "pM"}, {"measurement": "EC50, cytolysis of HCT116 cells by human PBMC, pH 6.5, donor 97529", "setting": "[5]", "result": 2.95, "unit": "pM"}, {"measurement": "EC50, cytolysis of HCT116 cells by human PBMC, pH 7.4, donor 13143", "setting": "[5]", "result": 8.73, "unit": "pM"}, {"measurement": "EC50, cytolysis of HCT116 cells by human PBMC, pH 7.4, donor 13290", "setting": "[5]", "result": 4.37, "unit": "pM"}, {"measurement": "EC50, cytolysis of HCT116 cells by human PBMC, pH 7.4, donor 13292", "setting": "[5]", "result": 6.35, "unit": "pM"}, {"measurement": "EC50, cytolysis of HCT116 cells by human PBMC, pH 7.4, donor 13371", "setting": "[5]", "result": 6.96, "unit": "pM"}, {"measurement": "EC50, cytolysis of HCT116 cells by human PBMC, pH 7.4, donor 13397", "setting": "[5]", "result": 5.9, "unit": "pM"}, {"measurement": "EC50, cytolysis of HCT116 cells by human PBMC, pH 7.4, donor 13411", "setting": "[5]", "result": 1.36, "unit": "pM"}, {"measurement": "EC50, cytolysis of CHO cynoEpCAM cells by cyno PBMC, pH 6.5, Experiment-1", "setting": "[6]", "result": 18.9, "unit": "pM"}, {"measurement": "EC50, cytolysis of CHO cynoEpCAM cells by cyno PBMC, pH 6.5, Experiment-2", "setting": "[6]", "result": 15.9, "unit": "pM"}, {"measurement": "EC50, cytolysis of CHO cynoEpCAM cells by cyno PBMC, pH 6.5, Experiment-3", "setting": "[6]", "result": 17.4, "unit": "pM"}, {"measurement": "EC50, cytolysis of CHO cynoEpCAM cells by cyno PBMC, pH 7.4, Experiment-1", "setting": "[6]", "result": 172, "unit": "pM"}, {"measurement": "EC50, cytolysis of CHO cynoEpCAM cells by cyno PBMC, pH 7.4, Experiment-2", "setting": "[6]", "result": 215, "unit": "pM"}, {"measurement": "EC50, cytolysis of CHO cynoEpCAM cells by cyno PBMC, pH 7.4, Experiment-3", "setting": "[6]", "result": 167, "unit": "pM"}]}
